Results published in article PMC12803839.

Target: pyruvate kinase M2 (human (endogenous in HK-2)) (UniProt P14618)
Assay: cross-linking; proteins of HK-2 cells treated with vehicle or compound 3k; DSS 1 mM, room temperature, 30 min, quenched with 20 mM Tris; SDS-PAGE and Western blot for PKM2; more monomer and less dimer and tetramer with compound 3k

Chain of pyruvate kinase M2, P14618 1-531 (natural protein; other documents disagree on this pair) (P14618 whole entry): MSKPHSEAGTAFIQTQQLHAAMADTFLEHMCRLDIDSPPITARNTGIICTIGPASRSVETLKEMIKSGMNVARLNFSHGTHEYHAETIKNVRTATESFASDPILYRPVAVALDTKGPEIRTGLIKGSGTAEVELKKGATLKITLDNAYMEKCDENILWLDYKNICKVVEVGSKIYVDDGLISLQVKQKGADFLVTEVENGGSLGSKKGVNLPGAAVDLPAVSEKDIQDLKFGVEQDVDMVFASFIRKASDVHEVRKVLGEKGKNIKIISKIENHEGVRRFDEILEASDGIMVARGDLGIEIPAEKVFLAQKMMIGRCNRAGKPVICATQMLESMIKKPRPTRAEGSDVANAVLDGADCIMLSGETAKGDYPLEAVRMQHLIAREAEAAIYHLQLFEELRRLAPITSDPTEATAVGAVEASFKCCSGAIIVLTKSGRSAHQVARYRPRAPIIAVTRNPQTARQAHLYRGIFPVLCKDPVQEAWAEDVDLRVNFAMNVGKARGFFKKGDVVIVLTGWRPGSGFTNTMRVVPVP

- stoichiometry N: 2
Substance: pyruvate kinase M2, P14618 1-531 (natural protein; other documents disagree on this pair)
